Laboratory results from the MegaScale stability set (Tsuboyama et al. 2023).

B1: EEHEE_rd4_0003 (parent)
chain: KKVTINGVEIKFNNPEEAVKFALELAKRLNLRIEFHGDQIKIE

Variants of: B1
Assay: folding stability dG (cDNA display proteolysis); higher = more stable
Settings: PBS, room temperature

Point of comparison: KWVTINGVEIKFNNPEEAVKFALELAKRLNLRIEFHGDQIKIE, “folding stability dG” value 2.88 kcal/mol. Against it:
- QKVTINGVEIKFNNPEEAVKFALELAKRLNLRIEFHGDQIKIE — lower, 2.5 kcal/mol
- PKVTINGVEIKFNNPEEAVKFALELAKRLNLRIEFHGDQIKIE — lower, 2.75 kcal/mol
- EKVTINGVEIKFNNPEEAVKFALELAKRLNLRIEFHGDQIKIE — lower, 2.09 kcal/mol
- TKVTINGVEIKFNNPEEAVKFALELAKRLNLRIEFHGDQIKIE — higher, 3.14 kcal/mol
- DKVTINGVEIKFNNPEEAVKFALELAKRLNLRIEFHGDQIKIE — lower, 2.23 kcal/mol
- FKVTINGVEIKFNNPEEAVKFALELAKRLNLRIEFHGDQIKIE — higher, 3.5 kcal/mol
- LKVTINGVEIKFNNPEEAVKFALELAKRLNLRIEFHGDQIKIE — higher, 3.15 kcal/mol
- VKVTINGVEIKFNNPEEAVKFALELAKRLNLRIEFHGDQIKIE — higher, 3.25 kcal/mol
- SKVTINGVEIKFNNPEEAVKFALELAKRLNLRIEFHGDQIKIE — lower, 2.83 kcal/mol
- WKVTINGVEIKFNNPEEAVKFALELAKRLNLRIEFHGDQIKIE — higher, 3.51 kcal/mol
- MKVTINGVEIKFNNPEEAVKFALELAKRLNLRIEFHGDQIKIE — higher, 3.33 kcal/mol
- HKVTINGVEIKFNNPEEAVKFALELAKRLNLRIEFHGDQIKIE — higher, 2.89 kcal/mol
- RKVTINGVEIKFNNPEEAVKFALELAKRLNLRIEFHGDQIKIE — lower, 2.79 kcal/mol
- AKVTINGVEIKFNNPEEAVKFALELAKRLNLRIEFHGDQIKIE — lower, 2.84 kcal/mol
- IKVTINGVEIKFNNPEEAVKFALELAKRLNLRIEFHGDQIKIE — higher, 3.3 kcal/mol
- GKVTINGVEIKFNNPEEAVKFALELAKRLNLRIEFHGDQIKIE — lower, 2.6 kcal/mol
- YKVTINGVEIKFNNPEEAVKFALELAKRLNLRIEFHGDQIKIE — higher, 3.44 kcal/mol
- NKVTINGVEIKFNNPEEAVKFALELAKRLNLRIEFHGDQIKIE — lower, 2.67 kcal/mol
- KKQTINGVEIKFNNPEEAVKFALELAKRLNLRIEFHGDQIKIE — lower, 1.59 kcal/mol
- KKLTINGVEIKFNNPEEAVKFALELAKRLNLRIEFHGDQIKIE — lower, 2.39 kcal/mol
- KKHTINGVEIKFNNPEEAVKFALELAKRLNLRIEFHGDQIKIE — lower, 1.86 kcal/mol
- KKPTINGVEIKFNNPEEAVKFALELAKRLNLRIEFHGDQIKIE — lower, 2.06 kcal/mol
- KKMTINGVEIKFNNPEEAVKFALELAKRLNLRIEFHGDQIKIE — lower, 2.12 kcal/mol
- KKSTINGVEIKFNNPEEAVKFALELAKRLNLRIEFHGDQIKIE — lower, 1.46 kcal/mol
- KKGTINGVEIKFNNPEEAVKFALELAKRLNLRIEFHGDQIKIE — lower, 1.85 kcal/mol
- KKYTINGVEIKFNNPEEAVKFALELAKRLNLRIEFHGDQIKIE — lower, 2.26 kcal/mol
- KKETINGVEIKFNNPEEAVKFALELAKRLNLRIEFHGDQIKIE — lower, 1.86 kcal/mol
- KKRTINGVEIKFNNPEEAVKFALELAKRLNLRIEFHGDQIKIE — lower, 1.95 kcal/mol
- KKKTINGVEIKFNNPEEAVKFALELAKRLNLRIEFHGDQIKIE — lower, 1.57 kcal/mol
- KKFTINGVEIKFNNPEEAVKFALELAKRLNLRIEFHGDQIKIE — lower, 2.27 kcal/mol
- KKTTINGVEIKFNNPEEAVKFALELAKRLNLRIEFHGDQIKIE — lower, 1.76 kcal/mol
- KKWTINGVEIKFNNPEEAVKFALELAKRLNLRIEFHGDQIKIE — lower, 2.29 kcal/mol
- KKATINGVEIKFNNPEEAVKFALELAKRLNLRIEFHGDQIKIE — lower, 1.67 kcal/mol
- KKDTINGVEIKFNNPEEAVKFALELAKRLNLRIEFHGDQIKIE — lower, 1.7 kcal/mol
- KKITINGVEIKFNNPEEAVKFALELAKRLNLRIEFHGDQIKIE — lower, 2.48 kcal/mol
- KKNTINGVEIKFNNPEEAVKFALELAKRLNLRIEFHGDQIKIE — lower, 1.7 kcal/mol
- KGVTINGVEIKFNNPEEAVKFALELAKRLNLRIEFHGDQIKIE — lower, 2.2 kcal/mol
- KVVTINGVEIKFNNPEEAVKFALELAKRLNLRIEFHGDQIKIE — higher, 3.28 kcal/mol
- KPVTINGVEIKFNNPEEAVKFALELAKRLNLRIEFHGDQIKIE — lower, 2.2 kcal/mol
- KSVTINGVEIKFNNPEEAVKFALELAKRLNLRIEFHGDQIKIE — higher, 2.92 kcal/mol
- KDVTINGVEIKFNNPEEAVKFALELAKRLNLRIEFHGDQIKIE — lower, 1.93 kcal/mol
- KCVTINGVEIKFNNPEEAVKFALELAKRLNLRIEFHGDQIKIE — higher, 3.4 kcal/mol
- KFVTINGVEIKFNNPEEAVKFALELAKRLNLRIEFHGDQIKIE — lower, 2.8 kcal/mol
- KEVTINGVEIKFNNPEEAVKFALELAKRLNLRIEFHGDQIKIE — lower, 2.06 kcal/mol
- KTVTINGVEIKFNNPEEAVKFALELAKRLNLRIEFHGDQIKIE — higher, 3.4 kcal/mol
- KIVTINGVEIKFNNPEEAVKFALELAKRLNLRIEFHGDQIKIE — higher, 3.41 kcal/mol
- KQVTINGVEIKFNNPEEAVKFALELAKRLNLRIEFHGDQIKIE — lower, 2.36 kcal/mol
- KRVTINGVEIKFNNPEEAVKFALELAKRLNLRIEFHGDQIKIE — lower, 2.78 kcal/mol
- KHVTINGVEIKFNNPEEAVKFALELAKRLNLRIEFHGDQIKIE — lower, 2.46 kcal/mol
- KMVTINGVEIKFNNPEEAVKFALELAKRLNLRIEFHGDQIKIE — lower, 2.83 kcal/mol
- KNVTINGVEIKFNNPEEAVKFALELAKRLNLRIEFHGDQIKIE — lower, 2.48 kcal/mol
- KLVTINGVEIKFNNPEEAVKFALELAKRLNLRIEFHGDQIKIE — lower, 2.84 kcal/mol
- KAVTINGVEIKFNNPEEAVKFALELAKRLNLRIEFHGDQIKIE — lower, 2.46 kcal/mol
- KYVTINGVEIKFNNPEEAVKFALELAKRLNLRIEFHGDQIKIE — lower, 2.82 kcal/mol
- KKVCINGVEIKFNNPEEAVKFALELAKRLNLRIEFHGDQIKIE — higher, 3.48 kcal/mol
- KKVAINGVEIKFNNPEEAVKFALELAKRLNLRIEFHGDQIKIE — lower, 2.02 kcal/mol
- KKVVINGVEIKFNNPEEAVKFALELAKRLNLRIEFHGDQIKIE — higher, 2.94 kcal/mol
- KKVGINGVEIKFNNPEEAVKFALELAKRLNLRIEFHGDQIKIE — lower, 1.61 kcal/mol
